Data as given in article PMC11927175, “Global profiling of CPL3-mediated alternative splicing reveals regulatory mechanisms of DGK5 in plant immunity and phosphatidic acid homeostasis” (Genome Biology, 2025).
One block for each binder: values may come before it.

Legend:
[1] = molecular target: T1, six histidine-tagged DGK5β (…OL KINASE 5, constitutive full-length isoform) (Arabidopsis thaliana, UniProt Q9C5E5 1-509); experiment: pull-down; GST-BIK1 immobilised on glutathione agarose beads, blocked with BSA, incubated with 2 μg HIS-DGK5β or HIS-DGK5α in 300 μl incubation buffer (20 mM Tris-HCl pH 7.5, 100 mM NaCl, 0.1 mM EDTA, 0.2% Triton X-100) at 4 °C for 1 h; washed with 300 mM NaCl buffer; immunoblot with α-HIS and α-GST; settings: both partners purified
T1 construct: …OL KINASE 5, isoform DGK5β, Arabidopsis thaliana, AT2G20900; printed size 57.4 kDa; Ser506 lies in the CBD; also called HIS-DGK5β; source: E. coli BL21, purified (Ni-NTA agarose)
T1 sequence (looked up): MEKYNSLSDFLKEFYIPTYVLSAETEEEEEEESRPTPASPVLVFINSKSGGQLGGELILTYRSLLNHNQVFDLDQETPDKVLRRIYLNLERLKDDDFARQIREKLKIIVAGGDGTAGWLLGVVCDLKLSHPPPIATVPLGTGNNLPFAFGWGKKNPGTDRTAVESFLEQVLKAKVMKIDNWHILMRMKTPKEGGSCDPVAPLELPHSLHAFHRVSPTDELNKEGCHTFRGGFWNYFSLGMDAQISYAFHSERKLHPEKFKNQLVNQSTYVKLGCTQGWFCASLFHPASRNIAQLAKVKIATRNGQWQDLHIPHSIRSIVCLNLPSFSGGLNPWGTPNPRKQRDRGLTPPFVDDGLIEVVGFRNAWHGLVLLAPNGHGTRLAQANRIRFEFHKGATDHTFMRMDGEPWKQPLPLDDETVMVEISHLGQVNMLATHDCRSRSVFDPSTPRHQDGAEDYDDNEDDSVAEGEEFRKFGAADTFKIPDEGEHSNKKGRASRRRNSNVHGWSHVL

[2] = molecular target: T2, glutathione S-transferase (GST)-tagged BIK1 (BOTRYTIS-INDUCED KINASE 1) (Arabidopsis thaliana (Mouse-ear cress), UniProt O48814); experiment: GST pull-down
T2 chain: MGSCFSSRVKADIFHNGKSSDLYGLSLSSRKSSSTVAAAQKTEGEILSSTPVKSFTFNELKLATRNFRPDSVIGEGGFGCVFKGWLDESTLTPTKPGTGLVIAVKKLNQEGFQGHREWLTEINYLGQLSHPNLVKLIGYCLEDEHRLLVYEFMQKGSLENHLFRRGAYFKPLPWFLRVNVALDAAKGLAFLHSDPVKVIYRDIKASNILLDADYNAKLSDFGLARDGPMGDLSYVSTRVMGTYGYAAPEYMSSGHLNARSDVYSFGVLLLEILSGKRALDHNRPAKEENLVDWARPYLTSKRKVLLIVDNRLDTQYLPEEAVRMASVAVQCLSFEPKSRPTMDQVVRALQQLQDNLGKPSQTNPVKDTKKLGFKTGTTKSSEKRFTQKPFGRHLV

binding result [1]: binds
B1: glutathione S-transferase (GST)-tagged BIK1 (BOTRYTIS-INDUCED KINASE 1) (enzyme, Arabidopsis thaliana, UniProt O48814 1-395, looked up)
chain: T2 chain
notes: BOTRYTIS-INDUCED KINASE 1 (BIK1), receptor-like cytoplasmic kinase, Arabidopsis thaliana, AT2G39660; also called GST-BIK1; source: E. coli BL21, purified (glutathione agarose)

binding result [2]: binds
B2: six histidine-tagged DGK5β (…OL KINASE 5, constitutive full-length isoform) (protein)
chain: T1 sequence (looked up)
